The target of assay [1] is SARS-CoV-2 RBD WT (for crystallization) (SARS-CoV-2, UniProt P0DTC2). The assay can be described thus: crystal structure.
Assay [2] concerns the target Prefusion-stabilized SARS-CoV-2 spike protein for SPR (residues 14–1211, D614G) (SARS-CoV-2 Wuhan-Hu-1 with D614G, D614G). The assay can be described thus: SPR. (In general: In SPR one partner is held on a chip, and binding of the other changes the refractive index at the surface.)
For assay [3], the target named is yeast-displayed unmutated SARS-CoV-2 RBD (Wuhan-Hu-1) (SARS-CoV-2, UniProt P0DTC2). The assay can be described thus: flow cytometry on cells.

B1: S2X259 Fab (Fab, V domains shown)
VH: QVQLVQSGAEVKKPGSSVKVSCKASGGIFNTYTISWVRQAPGQGLEWMGRIILMSGMANYAQKIQGRVTITADKSTSTAYMELTSLRSDDTAVYYCARGFNGNYYGWGDDDAFDIWGQGTLVTVYS
VL: QTVLTQPPSVSGAPGQRVTISCTGSNSNIGAGYDVHWYQQLPGTAPKLLICGNSNRPSGVPDRFSGSKSGTSASLAITGLQAEDEADYYCQSYDSSLSGPNWVFGGGTKLTVL
Turning to B1, in assay [1], the binding result was “binds”.

B2: S2D106 Fab (Fab, V domains shown)
VH: EVQLVQSGAEVKKPGSSVKVSCKASGGPFSSSAISWVRQAPGQGLEWMGGIIPMVGTANYAQKFQGRVTITADESTSTAYMELSSLRSEDTAVYYCARDSRYCSGGSCYSVWFDPWGQGTLVTVSS
VL: not shown
By Kd is commonly meant the free concentration of one partner at which half of the binding sites on the other are occupied at equilibrium, for simple one-to-one binding. Read a high Kd as weaker binding. The molecule B2 came in with a Kd in assay [2] of 0.17 nM.

B3: S2H14 IgG1 (antibody, V domains shown)
VH: not shown
VL: NFMLTQPHSVSESPGKTVTISCTRSSGSIASNYVQWYQQRPGSSPTTVIYEDNQRPSGVPDRFSGSIDSSSNSASLTISGLKTEDEADYYCQSYDSSNQVFGGGTKLTVL
On to B3, for which the binding result in assay [3] is on record as “binds”.

The record behind these values is PMC9282883 (Nature, 2021).
